Experimental findings from publication PMC5465072 are described below.

Holding throughout (conditions): modification not given
Experiment [1] addresses T1, Protective antigen (PA) 488-735 (Bacillus anthracis), P13423.
Experiment [2] deals with T1, Protective antigen (PA) 488-735 …. As to the kind of experiment: ELISA. For orientation: ELISA stands for enzyme-linked immunosorbent assay.
For experiment [3], the target named is T2, CMG2 38-218 (Homo sapiens), P58335.
T2 chain: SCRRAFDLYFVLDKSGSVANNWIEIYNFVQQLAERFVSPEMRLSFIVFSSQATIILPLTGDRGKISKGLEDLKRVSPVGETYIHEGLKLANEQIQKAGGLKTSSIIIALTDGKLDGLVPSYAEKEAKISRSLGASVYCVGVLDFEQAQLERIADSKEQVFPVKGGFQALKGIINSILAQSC
Kind of experiment: microscale thermophoresis. A general note: Microscale thermophoresis detects binding through changes in fluorescence in a small temperature gradient.

The target is the same in experiment [4]. As to the kind of experiment: sandwich ELISA (competition with His6-PA 596-735).
Experiment [5] has the same target. Kind of experiment: sandwich ELISA (competition with His6-PA 488-735).

B1: CMNHFPA (peptide)
chain: CMNHFPA
In the case of B1, the Kd in experiment [1] is 38.2 µM. In experiment [2], this molecule returned an IC50 of 49.8 µM.

B2: CLRFT (peptide)
chain: CLRFT
Molecule B2 displayed a Kd in experiment [3] of 30.2 µM. The half-maximal inhibitory concentration (IC50) in experiment [4] is 71.3 µM; in experiment [5], 77.1 µM.

B3: HPCNAMF (scrambled CMNHFPA) (peptide)
chain: HPCNAMF
Consider B3, for which the concentration for half-maximal inhibition (IC50) in experiment [2] was 153 µM.

As a reminder, the Kd is the concentration at which binding is half-saturated. In general, IC50 refers to the point on the concentration scale where inhibition reaches its midpoint.
